# Laboratory results reported in US20040132093A1 (AVENTIS PHARMA S A, published 2004).
# B1: OBRs-Luc fusion protein (short form of the leptin receptor fused at its C-terminal end to Renilla luciferase) (receptor)
# chain: ASISARQEQKLISEEDLTRYPITPWRFKLSCMPPNSTYDYFLLPAGLSKNTSNSNGHYETAVEPKFNSSGTHFSNLSKTTFHCCFRSEQDRNCSLCADNIEGTTFVSTVNSLVFQQIDANWNIQCWLKGDLKLFICYVESLFKNLFRNYNYKVHLLYVLPEVLEDSPLVPQKGSFQMVHCNCSVHECCECLVPVPTAKLNDTLLMCLKITSGGVIFRSPLMSVQPINMVKPDPPLGLHMEITDDGNLKISWSSPPLVPFPLQYQVKYSENSTTVIREADKIVSATSLLVDSILPGSSYEVQVRGKRLDGPGIWSDWSTPRVFTTQDVIYFPPKILTSVGSNVSFHCIYKKENKIVPSKEIVWWMNLAEKIPQSQYDVVSDHVSKVTFFNLNETKPRGKFTYDAVYCCNEHECHHRYAELYVIDVNINISCETDGYLTKMTCRWSTSTIQSLAESTLQLRYHRSSLYCSDIPSIHPISEPKDCYLQSDGFYECIFQPIFLLSGYTMWIRINHSLGSLDSPPTCVLPDSVVKPLPPSSVKAEITINIGLLKISWEKPVFPENNLQFQIRYGLSGKEVQWKMYEVYDAKSKSVSLPVPDLCAVYAVQVRCKRLDGLGYWSNWSNPAYTVVMDIKVPMRGPEFWRIINGDTMKKEKNVTLLWKPLMKNDSLCSVQRYVINHHTSCNGTWSEDVGNHTKFTFLWTEQAHTVTVLAINSIGASVANFNLTFSWPMSKVNIVQSLSAYPLNSSCVIVSWILSPSDYKLMYFIIEWKNLNEDGEIKWLRISSSVKKYYIHDHFIPIEKYQFSLYPIFMEGVGKPKIINSFTQDDIEKHQSDAGLYVIVPVIISSSILLLGTLLISHQRMKKLFWEDVPNPKNCSWAQGLNFQKRTDILDPPARATMTSKVYDPEQRKRMITGPQWWARCKQMNVLDSFINYYDSEKHAENAVIFLHGNAASSYLWRHVVPHIEPVARCIIPDLIGMGKSGKSGNGSYRLLDHYKYLTAWFELLNLPKKIIFVGHDWGACLAFHYSYEHQDKIKAIVHAESVVDVIESWDEWPDIEEDIALIKSEEGEKMVLENNFFVETMLPSKIMRKLEPEEFAAYLEPFKEKGEVRRPTLSWPREIPLVKGGKPDVVQIVRNYNAYLRASDDLPKMFIESDPGFFSNAIVEGAKKFPNTEFVKVKGLHFSQEDAPDEMGKYIKSFVERVLKNEQ
# notes: Expressed in COS, HeLa or HEK 293 cells; also assayed in membranes and extracts; also called OB-R-Luc; donor fusion protein
# Columns and labels:
# [1] = molecular target: T1, protein from fusion between YFP and the insulin receptor (Boute et al., 2001) (UniProt P06213 28-1382); assay: BRET in living cells coexpressing the fusion proteins
# T1 construct: whole, on cells; Specificity control in BRET; also called insulin receptor-YFP; not shown: YFP
# [2] = molecular target: T2, OBRs-YFP fusion protein (short form of the leptin receptor fused at its C-terminal end to YFP) (human); assay: BRET in living cells, fusion proteins expressed in equimolar amounts
# T2 construct: also called OB-R-YFP; acceptor fusion protein
# Method: 48 hours after transfection, HeLa, COS and HEK 293 cells expressing OBR were detached and washed with PBS. 1-2×10⁵ cells were distributed into 96-well optical plates (Packard Instrument Company, Meriden, Conn.) in the presence or absence of ligands, at 25° C. Membranes prepared from cells expressing OBR were used for the measurements of BRET. The substrate, coelenterazine h (Molecular Probes, Eugene, Oreg.), was added at a final concentration of 5 μM and the reading was carried out with a Fusion™ fluoro/luminometer (Packard Instrument Company, Meriden, Conn.), which permits the sequential integration of the luminescence signals detected with two filters (Luc filter: 485+10 nm; YFP filter: 530±12.5 nm). The BRET ratio is defined as the difference in the emission at 530 nm/485 nm of the cotransfected Luc and YFP fusion proteins and the emission at 530 nm/485 nm of the Luc fusion protein alone. The results are expressed in milliBRET units (mBU), 1 mBRET unit corresponding to the value of the BRET ratio multiplied by 1 000. The following ligands were used to determine the specificity of the assay: recombinant human erythropoietin (EPO), insulin (Ins), lipopolysaccharide (LPS, Sigma Aldrich, St. Louis, USA), recombinant human trombopoietin (TPO), GM-CSF, interleukin 3 (IL3), interleukin 6 (IL6), prolactin (PRL), SCF, EGF and TNFα. […]
binder,measurement,setting,value
B1,binding result,[1],no binding
same,binding result,[2],binds
